Drawing on US20160146827A1, this text covers anisotropy (before addition), anisotropy (bound) and increase in anisotropy on binding for 1 substance.

In this test the target is GST-tagged PAK1-PBD protein (Cytoskeleton Inc.), Rac/Cdc42 (p21) binding domain of human p21 activated kinase 1, residues 67-150 (human) (UniProt Q13153). Description: fluorescence anisotropy in solution.
Sequence of GST-tagged PAK1-PBD protein (Cytoskeleton Inc.), Rac/Cdc42 (p21) binding domain of human p21 activated kinase 1, residues 67-150 (human) (Q13153 67-150 limits assumed): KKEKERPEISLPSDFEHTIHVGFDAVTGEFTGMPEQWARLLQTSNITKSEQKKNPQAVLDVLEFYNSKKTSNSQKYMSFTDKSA

“LUMP-Cdc42, fusion protein of LUMP with the constitutively active GTPase Cdc42 (Q61L) connected by a ten amino acid flexible linker (…) (from UniProt Q06877 1-186; P60953 1-191)” showed an anisotropy (before addition) of 0.19, an anisotropy (bound) of 0.22 and an increase in anisotropy on binding of 14%.
